Literature values, collected in PMC5758107.
Values joined by “and” are separate entries in the source; they are usually repeats but may differ in a detail not shown here. Equal values may be shown once.

Target: Foc ribosome-nascent chain complex (Escherichia coli) (UniProt P68699)
Test: fluorescence correlation spectroscopy

UniProt P68699, sequence (P68699 whole entry, one chain of several): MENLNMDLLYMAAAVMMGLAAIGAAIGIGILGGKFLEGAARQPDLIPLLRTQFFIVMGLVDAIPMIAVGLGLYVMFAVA

## YidC (from UniProt P25714)
  Kd: 210 nM and 85 nM
